Measurements published in the nanobody polyreactivity screen of Harvey et al. (2022).

Test: yeast display, Sf9 membrane polyspecificity reagent, FACS + sequencing; frameworks hold sequencing errors
In short: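 A synthetic nanobody library was expressed on Saccharomyces cerevisiae BJ5465 by galactose induction for 36–48 hours. The library was stained for 1 hour at 4 °C with 10% biotinylated, detergent-solubilized Sf9 membrane reagent and enriched with streptavidin microbeads before FACS. Low and high (top ~1%) gates were set on anti-HA fluorescence for expression and streptavidin fluorescence for reagent binding, and each polyreactivity label reflects the gate of origin.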

| Sequence | polyreactivity (PSR sort gate) |
| --- | --- |
| QVQLVESGGGLVQPGGSLRLSCAASGIIFRYYAMGWYRQAPGKERELVAAITWSGGSTYYADSVKGRFTISRDNAKNTVYLQMNRLKPEDTAVFDCAADWWSVRGYAVDYWGQGTQVTVSS | high polyreactivity |
| QVQLVESGGGLVQAGGSLRLSCAASGRIFLDNTMGGYRQATGKERELVATISSGASTNYADSVKGRFTISRDNAKNTVYLQMNSLKPEDTGVYYCNARVGGYPLWYKKYYYWGQGTQVNVSS | low polyreactivity |
| QDLLVESGGGLLQAGGSLRLICAASGYTFTYYAMGWYRQAPGKERELVAAINYSGGRTDYADSVKGRFTLSRDNAKNTVYLQKNSMNPEDTAVYYCAAYTRNGDFDYWGQGTQVTVSS | high polyreactivity |
| QVQLVESGGGLVQAGGSLRLTCAASGFTFGRYTMGWYRQAPGKERELVAAISGRGSRTYYADSVKGRFTISRDNAKNTVYLQMSSLKPVDTAVYYCAADVNVRSDMDYWGQGTQVTVSS | high polyreactivity |
| QVQLVESGGGLVQAGGSLRLSCAASGRTFAGNAMGWYRQAPGKERELVASISSSAGRTYYADSVKGRFTISRDNAKNTVYLQMNSLKPEDTAVDYCAARGGYVSTWTRFSKYNYWGQGTQVTVSS | high polyreactivity |
| QVQLVESGGGLVQAGGSLRLSCAASGRIFVYYAMGWYRQAPGKERELVAAISSGGDRTYYADSVKGRFTISRDNAKNTVYLQMNCLKPEDTAVYYCAKVYSTVKRYHWVGSRYDYWGQGTQVTVSS | high polyreactivity |
| QVQLVESGGGLVQAGGSLRLSCAASGFTSEYNAMGWYRQAPGNERELVAAITSGGSTYYADSVEGRFTISRDNAKNTVYLQMNSLKPEDTAVDYCAADYYVWGYLLEYGGQGTQVTVSS | high polyreactivity |
| QVQLVETGGGLVQAGGSLRLSSAASGITFKWNDMGCYRQAPGKEREFVAAITGSTGSTFYADSVKGRFTISRDNAKNTVYLQMNSLKPEDTAVYYCAAGPWFYYWGQGTEVTVSS | low polyreactivity |
| QVQLVESGGGLVQAGGSLRLSCAASGLIFRHYAMGWYRQAPGKERELVAVISSGAGTYYADSVKGRFTISRDNAKNTVYLQMISMKPEDTAVYYSARDLYYRYRYFITGLYDSWGQGTQVTVSS | low polyreactivity |
| QVQLVESGGGLVQAGGSLRLSCAASGFTFAYNAMGWYRQAPGKERELVAAISRSGARTYYADSVKGRFTISRDNAKNTVYLQMNSLKPEDTAVYYCNARDYTLYGYWGQGTQVTVSS | high polyreactivity |
| QVQLVESGGGIVQAGGSLRLSWAASGSIFDKYAMGWYRQAHGKERELVAAIDSGDTYYADSVKGRFTISRDNAKNPVYFQMNSLKPEDTAVYYWAADDVQYEYDYWGQGTQVSVSS | low polyreactivity |
| QVQLVESGGGLVQAGGSLRLSCAASGYIFGRNARGWYRQAQGKERELVAVISSRGSRTYYADSVKGRYTISRDNAKNTVYLQMNSLKPEDTAVYYCNAVMWWDWEYDFYYWGQGNQVTVSS | high polyreactivity |
| QVQLVESGGGLVQAGGSLRLSCAASGSTSDINAMGWYRQAPGKERELVAAITSRSGSTYYADSVKGRFTISRDNAKNTVYLQMNSLKPEDTAVYYCAAEYVRFYWYTSDYWGQGTQVTVSS | low polyreactivity |
| QVQLVESGGGLVQAGGSLRLSSAASGSIFKINAMGWYRQAPGKETELVATITWSTGTTYYADSVKGRFTISRDNAKNTVYLQMNSLKPEDTAVYYCATDGDSTKLDYWGQVTQVTVSS | low polyreactivity |
| QVQLVESGGGLVQAGGSLRLSCAASAMGRYRQAPGKERELVAGITSSGGSTYYADSVKGRFTISRDNAKNTVYLQMNSLKPEDTAVYYCNADNAGYGYWSYPYYYWGQGTQVTVSS | low polyreactivity |
| QVQHVESVGGLVQAGGSLRLSCAASGFTFYGYAMGWYRHATGKERELVPAISQSGGSTTYADSVKGRFTISRDKAKNTVYVQMNSLKPEDTAVYYCAARYPYYWWRHVYGDVEYDFWGQGTQGTVSS | high polyreactivity |

| Sequence | polyreactivity (PSR sort gate) |
| --- | --- |
| QDQLVDSGGGLLQAGGSLRLSCAASGSTLSKYAMGWNRQAPGKERELVAAISQRGGSTYYADSVKGRFTISRDNAKYTVYLQMNSLKPEDTAVSYCNALQRRYGYWGQGTQVTESS | high polyreactivity |
| QVQLVESCGGLVQAGGSLRLSCAASGSTFLVNAMGWYRPAPGKERELVAASSRGGGSTYYADSVKGRFTISRDKAKNTVYLQMNSLKPEDTAVYYCNARKWTIYGAHYYWGQGTQVTVSS | high polyreactivity |
| QVQLVESGGGLVHAGGSLRLSCAASGSIFGWYVMGWYRQAPGKERELVAAISSVGSTYYADSVKGRFTISRDNAKNTVCLQMNSLKPEDTAVYYCAKLRYPYLFWDDSEYWGQGTQVTVSS | low polyreactivity |
| QVQLVESGGGLVQAGGSLRLSCAASGNILSVYTLGWYRQAPGKERELVANITYSGDRTYADSVQVRFTISRDNAKTTVYLQMKILKPEDTAVYYCSKDGYPTGGPYWGGMDYWGQGTQVTVSS | low polyreactivity |
| QVQLVESGGGLVQAGGSLRLSCAASGRTFTGYAMGWYRQAPGKERELVAAISASGGSTYYADSVKGRFTISRDNAKNTVYLQMNSLKPEDTAVYYCAAESWYSVLWEEGYDYWGQGTQVTVSS | low polyreactivity |
| QVQLVESGGGLVQAGGSLRLSCAASGRTFSRNAMGWYRQAPGKERELVATITSDGSTNYADSVKGRFTISRDNAKNTVYLQMNSLKPEDTAVYYCAAGEQSSIIGAHDYWGQGTQVTVSS | low polyreactivity |
| QVQLVESGGGLVQAGGSLRLSCAASGRTFYKYALGWYRQAPGKERELVAAITSGGSTNYADSVKGRFTISRDNAKYTVYLQMNSLKPEDTAVYYCNASFEENFPFGDYDYWGQGTQVTGSS | high polyreactivity |
| QVQLVESGGCLVQAGGSLRLSCAASGRIFESNAMGWYRQAPGKERELVAAISVNGASTSYADSVKGRFTISRDNAKNTVYLQMNSLKPEDTAVYYCAARRGKGYYYWGQGTQVTVSS | high polyreactivity |
| QAQLEESGGGLVQAVGSLRLSCAASGRTFTNNDMGWYIQAPGKERELVAAIRWSGGSTYYADSVKGRFTISRDNAKNTVYFQMNSLKPEDTAVYYCAKGYGYVEAVIVQYDYWGQGTQVTVSS | low polyreactivity |
| QVQLVESGGGLVQAGGSLRISCAASGSIFLYYAMGWYRQPPGKEREFVAAISYSGGRTYYADSVKGRFTISRDNAKNTVYLQMNSLKPEDTAVYYCNALYRLGVSGLTQSRYGYWGQGTQVTVSS | high polyreactivity |
| QVQLEETGGGLVQAGGSLRLSCAASGIILGKNAMGWYRQAPGKERELVASITSGAGITYYADSVKGRFTISRDNAKNTVYLQMNSLKPEDTAVYYCAADWSGDFFTDGYWGQGTQVTVSS | low polyreactivity |
| QVQLVDSGGGLVQAGGSLRLSCASSGRIFHGYAMGWYRHAPGKERELVAAIDEDGGSTYYADSVKGRFTISRDNAKNTVYLQMNSLKPEDTAVYYCATDALYTYGYDYWGQGTQVTVSS | low polyreactivity |
| QVQLVESGGGLVQAGGSLRLSCAASGRIFGWNAMGWYRQAPGKERELVATITDGTSTNYADSVKGRFTISRDNAKNTVYLQMYSLKPVDTAVYYCAKRVVTSLYKPDGVKYDYWGQGTQVTVSS | high polyreactivity |
| QVQLVESGGGLVQAGGSLRLSCAASGSTFYYYVMGWYRQAPGKERELVAVISKSGGSTRYADSVKGRFTISRDNAKNTVYLQMNSLKPEDTAVYYCAADGLRLVPGYKYDYWGQGTQVTVSS | high polyreactivity |
| QVQLEDSGGGLVQAGGSLRLSCAASGIIFPDYAMGWYRQAPGKQRELVADISFSAGSTYYADSVKGRFTISRDNAKNTVYLQMNSLKPEDTAVYYCNARPFLTVLYLFYGNNYDYWGQGTQVTVSS | low polyreactivity |
| QVQLVESGGGLVQAGGSLRLSCAASGIILKFYAMGWYRQAPGKERELVAAISRGGRTNYADSVKGRFTISRDNANNTVYLQMNSLKPEDTAVYYCAAKSYTYYRNYDYWGQGTQVTVSA | high polyreactivity |
